Assay results as given in patent US20260274976A1 (BIO THERA SOLUTIONS, published 2026).

Tests used:
[1] = target: T1, human OX40 on PG-Jurkat-hOX40-NF-κB cells (human, UniProt P43489 29-277); test: cell-based or functional assay
T1 sequence (looked up): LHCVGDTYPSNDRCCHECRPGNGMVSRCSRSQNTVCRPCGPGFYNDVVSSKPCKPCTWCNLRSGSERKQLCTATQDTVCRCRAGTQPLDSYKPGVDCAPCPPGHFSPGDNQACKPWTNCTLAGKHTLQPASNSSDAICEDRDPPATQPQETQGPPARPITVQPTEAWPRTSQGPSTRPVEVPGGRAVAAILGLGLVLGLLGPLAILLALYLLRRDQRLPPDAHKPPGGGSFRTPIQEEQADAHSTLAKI

[2] = target: T1, human OX40 on PG-Jurkat-hOX40-NF-κB …; test: flow cytometry competition against OX40L-mFc on PG-Jurkat-OX40-NF-κB cells; reference is antibody KHK4083
Experimental: PG-Jurkat-OX40-NF-κB cells were resuspended in 1×PBS to achieve a density of 1×10⁷ cells/mL. […] PG-Jurkat-OX40-NF-κB cells were plated in sample wells, control wells, and blank wells at 50 μL/well, and the cell count was 5×10⁵ cells/well at this point. Antibody diluents at different concentrations were added to sample wells at 50 μL/well, and the mixture was mixed well. 50 μL of 1×PBS was added to control wells and blank wells. The 96-well V-bottom plate was incubated in a refrigerator at 4° C. for 5 min. […] After the incubation was complete, the 96-well V-bottom plate was taken out. The diluted ligand solution was added to sample wells and control wells at 50 μL/well as soon as possible, and the mixture was mixed well by pipetting. […] The 96-well V-bottom plate was incubated in a refrigerator at 4° C. for 50 min. The plate was washed with 1×PBS, and the supernatant was removed for further incubation.
Anti-mFc APC (Bioss, Cat. No.: BJ01138707) was diluted with 1×PBS at a ratio of 1:800, and 100 μL of the diluted anti-mFc APC was added to each well except for blank wells to resuspend the cells. The plate was incubated in the dark in a refrigerator at 4° C. for 30 min. After the incubation, the cells were washed with 1×PBS and finally resuspended in 1×PBS at 200 μL/well for flow cytometry analysis.

fold lower IC50 than antibody KHK4083 in blocking OX40L-mFc activation of OX40 signals (NF-κB luciferase reporter) [1]: 4.8 times
fold lower IC50 than antibody KHK4083 [2]: 2.8 times
B1: antibody M-KF (antibody, human IgG1, kappa, V domains shown)
VH: QVQLVESGGGVVQPGESLRLSCAASGFTFSSYGMHWVRQAPGKGLEWVAVIWEDGSNQYYADSVKGRFTISRDNSKNTLYLQMNSLRAEDTAVYYCAKDNQDTSPDVGIDYWGQGTLVTVSS
VL: DIQMTQSPSSLSASVGDRVTITCRASQNISPFLNWYQQKPGKAPKLLIYAAVGLQSGVPSRFSGSGSGTDFTLTISSLQPEDFATYYCQQYTDYPLTFGGGTKVEIKR
notes: also called anti-OX40 antibody
